Substitutions are numbered along the chain they refer to.

From US20260263521A1, “ANTI-CD200R1 ANTIBODY AND USE THEREOF” (AIMED BIO INC., priority 2023, published 2026) come the findings set out here.

For one assay, the system named is cynomolgus CD200R1. Briefly: SPR binding kinetics, cynomolgus CD200R1. To be noted: cynomolgus CD200R1-his captured on anti-His CM5 chip, 1:1 Langmuir fit. The procedure:
The CD200R1-specific binding ability of the antibodies (P001009 wt, P001009 v1, P001009 v2, P001009 v3, P001009 v4) selected in Example 14 was analyzed using surface plasma resonance (SPR). For the experiment, 30 μg/mL of an anti-histidine antibody was conjugated to a CM5 biacore chip via an amine bond while allowing to flow at 10 μl/min (10,000 RU). Then, 0.25 μg/mL of human or cynomolgus CD200R1 with dual His-tags was captured onto the completed chip for 60 seconds, and the binding ability of each antibody was analyzed. All experiments were performed by association of antibodies for 120 seconds and dissociation of antibodies for 600 seconds. The resulting graphs were fitted using a 1:1 Langmuir binding kinetic model (FIG. 16), and the kinetics of each antibody were calculated.

For assay [1], the system named is TNF-α in U937-CD200R1 cells. Briefly: TNF-α suppression in LPS-treated U937-CD200R1 cells (AlphaLISA). Type of assay: cell-based, human. The conditions noted are these: for TNF-α: LPS-treated U937-CD200R1 cells, 24 h. The procedure:
(§1) To determine the binding ability of the candidates to U937-CD200R1-overexpressing cell lines and verify the efficacy thereof, the anti-inflammatory effect of anti-CD200R1 antibodies was analyzed. First, 5×10^6 U937-CD200R1 cells were added to 12 ml of medium, treated with 30 ng/ml of Phorbol 12-myristate 13-acetate (Sigma Aldrich, #P1585), and reacted at 37° C. in 5% CO2 for 24 hours. After reaction, the medium was replaced with RPMI 1640 medium containing only 10% heat-inactivated FBS, and 5×10^6 cells were maintained at 37° C. in 5% CO2 for 24 hours.
(§2) Cells were seeded on duplicate onto 96-well round-bottom plates (SPL, #34296) at 1×10^5 cells/50 μl/well. P001009 WT, P001009v1, and the previously published CD200R antibody LY3454738 (US 2020/0087395, I-4P, Eli Lilly) as a positive control were used in this experiment. The drug was serially diluted 10-fold from a maximum concentration of 100 nM and treated to the cells at concentrations of 10 nM, 1 nM, […], respectively. Additional cells were treated with 100 nM of hIgG4 kappa isotype control (Crownvivo, #C0004) as a negative control. Untreated cells were seeded in the same amount of medium (RPMI 1640 containing 10% heat-inactivated FBS) and incubated at 37° C., 5% CO2 for 1 hour. To induce an inflammatory response in drug-treated cells, each well was treated with 10 μl of lipopolysaccharide from Salmonella typhosa (Sigma Aldrich, #L7895) at a concentration of 1 μg/ml. One well was left untreated to assess the induction of inflammatory cytokines. After thorough mixing, the cells were incubated at 37° C. and 5% CO2 for 24 hours.
(§3) After centrifugation at 1100 g for 2 minutes, images of the pellets before and after LPS treatment were captured using a microscope (Carl Zeiss, AXIO VERT.A1). After LPS treatment, the pellet appeared as scattered debris (FIG. 18B) rather than uniform spheroids (FIG. 18A). This was observed under a microscope. The supernatant was collected and analyzed for inflammatory cytokines such as TNF-α and IL-6 using an EnVision® multimode plate reader (PerkinElmer). A bead-based cytokine assay was performed using the AlphaLISA immunoassay on the EnVision® instrument. TNF-α(human) AlphaLISA Detection Kit, 500 assay points (PerkinElmer, #AL208C) was used for TNF-α, and the IL-6 (human) AlphaLISA Detection Kit, 500 assay points (PerkinElmer, #AL223C) was used for IL-6. Cytokine levels were determined depending on the concentration of each antibody.

Assay [2] concerns IL-6 in U937-CD200R1 cells. Briefly: IL-6 suppression in LPS-treated U937-CD200R1 cells (AlphaLISA). To be noted: for IL-6: LPS-treated U937-CD200R1 cells, 24 h. Type of assay: cell-based, human. The protocol: as §1, §2, §3
The mark [3] stands for this setting: low nanomolar (nM) drug concentrations.

B1: P001009: phage display anti-CD200R1 clone; VH SEQ ID NO: 79, VL SEQ ID NO: 94 (antibody, V domains shown)
VH: EVQLLESGGGLVQPGGSLRLSCAASGFTFSSYDMSWVRQAPGKGLEWVSWISHGGGSIYYADSVKGRFTISRDNSKNTLYLQMNSLRAEDTAVYYCARDAPAYSAPLFDYWGQGTLVTVSS
VL: QSVLTQPPSASGTPGQRVTISCSGSSSNIGNNAVNWYQQLPGTAPKLLIYYDSNRPSGVPDRFSGSKSGTSASLAISGLRSEDEADYYCAAWDDSLSGYVFGGGTKLTVL
Molecule B1 returned a Ka with cynomolgus CD200R1 of 5.63e+06 M⁻¹ s⁻¹. Besides, the TNF-α is 619.6 ± 12.3 pg/mL in assay [1] (log [Ab] (M) −7); 1259.1 ± 29.9 pg/mL in assay [1] (log [Ab] (M) −8); 2035.8 ± 108.9 pg/mL in assay [1] (log [Ab] (M) −9); 4148.8 ± 208.7 pg/mL in assay [1] (log [Ab] (M) −10); 5038.4 ± 7.7 pg/mL in assay [1] (log [Ab] (M) −11); 5128.6 ± 667.6 pg/mL in assay [1] (log [Ab] (M) −12). Further, the IL-6 was 231.7 ± 24.1 pg/mL in assay [2] (log [Ab] (M) −7); 401.5 ± 9.6 pg/mL in assay [2] (log [Ab] (M) −8); 1245.6 ± 49.9 pg/mL in assay [2] (log [Ab] (M) −9); 3398.1 ± 325.5 pg/mL in assay [2] (log [Ab] (M) −10); 3751.0 ± 144.5 pg/mL in assay [2] (log [Ab] (M) −11); 4512.7 ± 74.1 pg/mL in assay [2] (log [Ab] (M) −12).

B2: P001009v1: P001009 variant, LC S52 and LC S94 substituted with K and R; VH SEQ ID NO: 79 (antibody, V domains shown)
VH: B1 VH
VL: B1 VL with S53K, S95R
B2: the Ka in the assay with cynomolgus CD200R1 stood at 5.23e+06 M⁻¹ s⁻¹. Moreover, the TNF-α is 146.7 ± 23.8 pg/mL in assay [1] (log [Ab] (M) −7); 609.5 ± 25.6 pg/mL in assay [1] (log [Ab] (M) −8); 1039.8 ± 54.7 pg/mL in assay [1] (log [Ab] (M) −9); 3352.5 ± 189.8 pg/mL in assay [1] (log [Ab] (M) −10); 4753.2 ± 96.1 pg/mL in assay [1] (log [Ab] (M) −11); 4082.1 ± 964.6 pg/mL in assay [1] (log [Ab] (M) −12). In assay [1] (setting [3]), the “TNF-α level” value is reported as “maintained low inflammatory cytokine levels”. The IL-6 in assay [2] (log [Ab] (M) −7) was determined as 153.7 ± 8.8 pg/mL; in assay [2] (log [Ab] (M) −8), 165.1 ± 8.4 pg/mL; in assay [2] (log [Ab] (M) −9), 454.2 ± 45 pg/mL; in assay [2] (log [Ab] (M) −10) it was 2439 ± 56.8 pg/mL; in assay [2] (log [Ab] (M) −11) it was 3517.7 ± 166.3 pg/mL; in assay [2] (log [Ab] (M) −12) it was 4730.2 ± 99.8 pg/mL. In assay [2] (setting [3]), the “IL-6 level” value was “maintained low inflammatory cytokine levels”.
